The values that follow come from US20250289887A1 (Memorial Sloan Kettering, published 2025).

This test addresses T1, FKBP12 drug-induced heterodimerization domain (DmrA) (Homo sapiens (Human), UniProt P62942 2-108).
T1 construct: also called FKBP12-DmRA; FKBP12 heterodimerizing domain
The test can be described thus: drug-induced heterodimerization inside mouse T cells, with 1 µM AP21967; read out as hCD34 surface expression by flow cytometry (FIG. 9B). An excerpt: In the instant example, mouse T cells were transduced with the following 2 vectors (FIG. 9A): (Vector 1) encodes a Thy1.1 reporter and a drug-activated intein-tagged antigen-binding construct comprised of a CD19-targeting scFv fused to a hCD34 affinity-tag, a CD8 hinge and transmembrane domain, an AES CL low affinity intein N terminus, an FKBP12 drug-induced heterodimerization domain (DmrA), and an E319K ER retention motif, while (Vector 2) encodes an EGFP reporter and a cytoplasmic signaling shuttle comprised of a FRB drug-induced heterodimerization domain (DmrC), an AES CL low affinity intein C terminus, a CD28 costimulatory domain, and a CD3-zeta chain. In the absence of the dimerizing drug, hCD34 expression at the cell surface is low due to presence of the ER retention motif encoded by Vector1 (FIG. 9B). […] Thus, this system enables drug-regulated splicing to regulate post-translational CAR assembly. Double-transduced cells were cultured with 1 μM A/C heterodimerizing drug and subsequently enriched by MACS sorting using anti-hCD34 magnetic beads to yield highly pure hCD34+CD19-CAR T cells (FIG. 9B). […] This methodology improves upon previous FKBP/FRB-based drug-regulated CAR systems by eliminating the FKBP/FRB proteins following trans-splicing and generating a mature CAR molecule. […]
Background: A flow cytometer gives signals particle by particle.

T1 sequence (P62942 2-108 limits assumed, one chain of several): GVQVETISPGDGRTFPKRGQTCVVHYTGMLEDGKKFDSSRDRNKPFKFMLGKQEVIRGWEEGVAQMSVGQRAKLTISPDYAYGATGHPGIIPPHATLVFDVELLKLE

B1: FRB* heterodimerization domain (DmrC) (other)
chain: MILWHEMWHEGLEEASRLYFGERNVKGMFEVLEPLHAMMERGPQTLKETSFNQAYGRDLMEAQEWCRKYMKSGNVKDLLQAWDLYYHVFRRISK
notes: also called FRB drug-induced heterodimerization domain (DmrC); FRB (DmrB)
Turning to B1, the binding result was “binds”.
